According to publication PMC314469, “Protein Interaction Networks by Proteome Peptide Scanning” (PLoS Biology, 2004):

T1: Abp1 SH3 (ABP1_YEAST), P15891
T1 chain: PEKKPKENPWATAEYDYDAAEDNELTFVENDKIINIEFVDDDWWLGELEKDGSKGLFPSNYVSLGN

T2: Myo5 SH3 (MYO5_YEAST), Q04439
T2 chain: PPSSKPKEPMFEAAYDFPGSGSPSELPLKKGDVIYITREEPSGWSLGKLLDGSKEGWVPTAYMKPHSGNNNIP


Legend:
[1] = biological target: T1, Abp1 SH3 (ABP1_YEAST), P15891; assay: SPOT array
[2] = biological target: T2, Myo5 SH3 (MYO5_YEAST), Q04439; assay: SPOT array

| normalised SPOT signal, Boehringer light units (BLU); mean over the file's lines of this peptide [1] | normalised SPOT signal, Boehringer light units (BLU); mean over the file's lines of this peptide [2] | Binder |
| --- | --- | --- |
| 201 |  | MKLEGTYEKIPEKP [YAL024C 1062-1075] |
| 77.6 |  | NEYKGLITIIPSKP [YOL152W 549-562] |
| 185 |  | NFEVSHKPTVEKP [YPL095C 323-335] |
| 117 |  | NIETHENERLPPRP [YAL023C 524-537] |
|  | 53300 | PAPPPPPPPPPPP [YNL271C 1278-1290] |
| 264 |  | MRSNPQQPPQDKP [YPL204W 475-487] |
| 97 |  | NHASENTPRDGKP [YLR356W 137-149] |
|  | 86.5 | NPFPFPIPEIPSTQ [YOR181W 270-283] |
|  | 331 | PEVHHHSPGVPSLV [YLR229C 99-112] |
| 38.2 |  | NIPPPPPPPPPKP [YMR089C 153-165] |
| 2430 |  | MTAAKPNPYAAKP [YDL182W 1-13] |
| 539 |  | NGEEAEEVVVPEKP [YJL214W 46-59] |
| 2450 |  | MSISSKIRPTPRKP [YER118C 1-14] |
| 91.9 |  | MTPGASANALPPKP [YDL195W 796-809] |
| 3590 |  | MQLGSLVPSSLKP [YLR413W 258-270] |
| 206 |  | NDRNNADPEKKKP [YDR457W 2434-2446] |
| 310 |  | MQDYRPSPQSARP [YLL043W 81-93] |
| 100 |  | NATGNHTPKWFRP [YLR308W 199-211] |
| 267 |  | MSKLLKHGWKPLRP [YJR126C 471-484] |

| normalised SPOT signal, Boehringer light units (BLU); mean over the file's lines of this peptide [1] | normalised SPOT signal, Boehringer light units (BLU); mean over the file's lines of this peptide [2] | Binder |
| --- | --- | --- |
| 75.1 |  | NIEDITEPKPDKP [YDR363W 94-106] |
| 1740 |  | MRSHMEQPQSIKP [YOR329C 457-469] |
|  | 165 | NPLYWLLPSHPYTI [YGL160W 297-310] |
| 38 |  | NEAAKPSFSFPGKP [YOR098C 607-620] |
| 538 |  | MKHFFRLPTAFRP [YHR120W 1-13] |
| 9140 |  | MNIRPSISMRPIKP [YNL105W 40-53] |
|  | 190 | NPGSMSMPGVPTSM [YNL288W 26-39] |
|  | 81.4 | NLAPFTQPDFPFQT [YOR260W 14-27] |
| 1070 |  | MNPKSSTPKIPRP [YPR065W 1-13] |
|  | 126 | PEDFLPPPPKPHFA [YLR285W 17-30] |
| 387 |  | NIKMASFLPVPEKP [YNL206C 122-135] |
|  | 248 | NPQSLARPPPPKRI [YKL139W 28-41] |
|  | 157 | PEHLFNNPQNPMDF [YBR238C 623-636] |
| 285 |  | NHTIWVGPGKDKP [YHR015W 379-391] |
| 4880 |  | MTSNNLPPGKRKP [YBR222C 343-355] |
| 3450 |  | NHAINRIPIKLRP [YGL156W 1061-1073] |
| 217 |  | NESPRNVPIMVKP [YLL043W 210-222] |
|  | 217 | NLHGYGHPNPPNEK [YHR135C 370-383] |
| 6660 |  | MGARNVQPTMFKP [YDL164C 244-256] |

| normalised SPOT signal, Boehringer light units (BLU); mean over the file's lines of this peptide [1] | normalised SPOT signal, Boehringer light units (BLU); mean over the file's lines of this peptide [2] | Binder |
| --- | --- | --- |
| 97.9 |  | MKTTDTYPSLPKP [YMR205C 179-191] |
| 33.6 |  | NDEEIKKPTDGKP [YMR012W 785-797] |
|  | 82.5 | PEGVFSIPAPPPNV [YGR094W 179-192] |
| 26.2 |  | NESAPLQPFPERP [YFL041W 455-467] |
|  | 130 | PETRMDLPFSPEVN [YDR171W 234-247] |
| 1120 |  | NIPKPHIPYFMKP [YBR286W 82-94] |
| 103 |  | NSVDRHAFANPDKP [YLR153C 95-108] |
| 146 |  | NATGKHFPKYFRP [YLR307W 189-201] |
|  | 107 | PEPTMGSPDAPPLV [YLR357W 573-586] |
| 6180 |  | MNDDRETPPKRKP [YAL026C 1-13] |
| 93.7 |  | NIKVLLNPKLGKP [YLL007C 14-26] |
| 54.4 |  | NEDELDSPVQKKP [YKR086W 102-114] |
| 61.2 |  | NESFSLPPPQPKP [YFL044C 78-90] |
| 6.9 |  | NHGFLLPPENIKP [YHR132C 397-409] |
| 164 |  | NDRFSHTPQQQRP [YNL263C 17-29] |
| 18.5 |  | MSELHALLTFPERP [YDR465C 1-14] |
| 63.4 |  | MIEPAYRNGGPVKP [YOR093C 939-952] |
| 308 |  | MPQNQGFPPQFKP [YCL037C 234-246] |
|  | 75.6 | NLLSLENPVVPSHY [YIL137C 4-17] |
